In paper PMC12714728 (npj Viruses, 2025):
Starred links: 1 amine or outer side, 2 acyl side, 3 side chain; linkers in the order of their positions; H or OH if unused. Positions of bridges follow the written chain, without caps; N, C: chain ends. No end group written: not given here. Suc = O=C(CCC(=O)[*:2])[*:1]

Molecular target: T1, hemagglutinin (HA) ectodomain of A/Vietnam/1203/2004 (H5N1) (influenza A virus A/Vietnam/1203/2004 …)
Test: cell-based or functional assay
Settings: not given

Binder | virus neutralization assay (VNA) EC50, H5/Viet virus [µM]
CLYRDPLGVAGGMGC (not fully specified (bridges); cysteine pairing not given here, source: synthetic peptide (manual solid phase Fmoc chemistry, iodine oxidation, RP-HPLC)) [cyclic peptide CP8] | 34.6

Molecular target: T1, hemagglutinin (HA) ectodomain of …
Test: AlphaScreen or HTRF
Settings: both partners purified

Binder | IC50 [µM]
Suc-VSLYRDPLGVAGGMGVY-NH2 (source: synthetic peptide (manual solid phase Fmoc chemistry, RP-HPLC)) [linear peptide LP1] | 47.9
CYRDPLGVAGGMC (disulfide 1-13, source: synthetic peptide (manual solid phase Fmoc chemistry, iodine oxidation, RP-HPLC)) [cyclic peptide CP11] | 7.78
LYEDPLGVAGGMG (head-to-tail lactam cyclized (no template), source: synthetic peptide (manual solid phase Fmoc chemistry, RP-HPLC)) [cyclic peptide CP14] | 10
CLYRDPLGVAGGMGC (not fully specified (bridges); cysteine pairing not given here, source: synthetic peptide (manual solid phase Fmoc chemistry, iodine oxidation, RP-HPLC)) [cyclic peptide CP8] | 1.55
CYEDPLGVAGGMC (not fully specified; cysteine pairing not given here) [cyclic peptide CP12] | 28.8
CYRDPLGVAGEMC (not fully specified; cysteine pairing not given here) [cyclic peptide CP13] | 39.8
